Where no end group is shown, it is not given here. The star is where a group is joined. For = O=C*
Columns and labels:
Experiment in all cases: Ca2+ flux in FPR-transfected HL60 cells, one-site binding model
FPR1 = molecular target: T1, FPR1 (Homo sapiens, UniProt P21462)
T1 chain: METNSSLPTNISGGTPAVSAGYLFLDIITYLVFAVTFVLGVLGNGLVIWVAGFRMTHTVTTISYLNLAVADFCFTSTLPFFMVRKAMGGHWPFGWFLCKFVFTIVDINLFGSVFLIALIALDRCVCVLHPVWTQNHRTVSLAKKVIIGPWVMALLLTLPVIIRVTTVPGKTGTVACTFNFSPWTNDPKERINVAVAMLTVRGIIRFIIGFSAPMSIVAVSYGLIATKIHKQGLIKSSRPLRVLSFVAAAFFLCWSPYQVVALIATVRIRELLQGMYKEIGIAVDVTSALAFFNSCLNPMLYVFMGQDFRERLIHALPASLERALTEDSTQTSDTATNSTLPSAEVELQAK

FPR2 = molecular target: T2, FPR2 (Homo sapiens, UniProt P25090)
T2 chain: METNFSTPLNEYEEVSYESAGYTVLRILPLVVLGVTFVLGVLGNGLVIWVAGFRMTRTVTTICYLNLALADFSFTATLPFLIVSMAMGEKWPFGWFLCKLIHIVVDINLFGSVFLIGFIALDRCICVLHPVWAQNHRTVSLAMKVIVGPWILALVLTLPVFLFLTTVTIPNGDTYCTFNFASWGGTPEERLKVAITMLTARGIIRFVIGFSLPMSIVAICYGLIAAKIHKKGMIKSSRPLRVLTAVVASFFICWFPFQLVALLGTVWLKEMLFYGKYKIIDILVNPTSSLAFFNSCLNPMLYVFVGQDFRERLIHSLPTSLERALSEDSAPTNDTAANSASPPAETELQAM

FPR3 = molecular target: T3, FPR3 (Homo sapiens, UniProt P25089)
T3 chain: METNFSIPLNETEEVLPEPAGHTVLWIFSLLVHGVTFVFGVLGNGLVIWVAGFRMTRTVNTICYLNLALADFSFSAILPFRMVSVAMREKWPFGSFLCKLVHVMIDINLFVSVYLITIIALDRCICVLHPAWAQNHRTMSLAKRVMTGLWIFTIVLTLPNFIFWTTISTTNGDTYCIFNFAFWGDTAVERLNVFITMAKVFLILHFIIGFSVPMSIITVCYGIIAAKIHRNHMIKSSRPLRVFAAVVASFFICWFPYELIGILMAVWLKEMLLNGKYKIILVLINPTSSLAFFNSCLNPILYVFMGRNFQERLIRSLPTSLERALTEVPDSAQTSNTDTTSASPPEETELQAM

For-MEFVAKLFKFFKDLLGKFLGNN [PSMα3]
Kd (FPR1): 616 nM | Kd (FPR2): 11.9 nM | Kd (FPR3): 1380 nM

Source: publication PMC4140855, “Production of an Attenuated Phenol-Soluble Modulin Variant Unique to the MRSA Clonal Complex 30 Increases Severity of Bloodstream Infection” (PLoS Pathogens, 2014)
